The values that follow come from patent US20210087291A1 (Hoffmann-La Roche, published 2021).

The EC50 is the concentration that produces a half-maximal response.

Experiment [1] concerns the target T1, cynomolgus TIM-3 on isolated cyno CD14+ monocytes (cynomolgus).
T1 construct: whole, on cells
Description: flow cytometry, cyno CD14+ monocytes cyno1. (In general: In flow cytometry, cells or beads pass a laser one at a time.)
Description: (§1) CD14+ Monocytes were isolated from cynomolgus monkey anticoagulated peripheral blood (Covance) by density gradient centrifugation using Ficoll-Paque (GE Healthcare) (see General Protocols in the User Manuals or visit www.miltenyibiotec.com/protocols) and subsequent positive selection via NHP CD14 MicroBeads. First the CD14+ cells are magnetically labeled with CD14 MicroBeads. Then the cell suspension is loaded onto a MACS® Column which is placed in the magnetic field of a MACS Separator. The magnetically labeled CD14+ cells are retained in the column. The unlabeled cells run through, this cell fraction is depleted of CD14+ cells. After removal of the column from the magnetic field, the magnetically retained CD14+ cells can be eluted as the positively selected cell fraction. After centrifugation at 200×g for 10 min at room temperature the monocytes were harvested and used directly in binding assay or resuspended in freezing medium (10% DMSO, 90% FCS) at 1.0E+07 cells/ml and stored in liquid nitrogen.
(§2) 1×10⁵ CD14+ isolated cyno monocytes (50 μl/well) were put into 98 well-v bottom MTP in fresh culture medium and incubated with Redimune® NF Liquid for 15 min at RT to block unspecific binding. Than 50 μl/well of Alexa488 labeled anti-TIM3 (10 μg/ml in cell culture medium) were added and incubated for 1 h at 4° C. After washing and centrifugation MFI signals of stained cells were analyzed by BD Biosciences FACSCanto flow cytometer.

Experiment [2] concerns the target T1, cynomolgus TIM-3 on isolated cyno CD14+ …. Briefly: flow cytometry, cyno CD14+ monocytes cyno2.
Description: as §1, §2
The target is the same in experiment [3]. Briefly: flow cytometry, cyno CD14+ monocytes cyno3.
The target in experiment [4] is T2, human TIM-3 on cells (human, UniProt Q8TDQ0 22-301).
T2 construct: also called CHO-Tim3; rec CHOK1 cells expressing huTIM-3
Description: flow cytometry, human CD14+ monocytes donor1.

The target in experiment [5] is T2, human TIM-3 on cells. Briefly: flow cytometry, human CD14+ monocytes donor2.
The target in experiment [6] is T2, human TIM-3 on cells. Briefly: flow cytometry, human CD14+ monocytes donor3.
Description: CD14+ Monocytes were isolated from anticoagulated peripheral blood of healthy donors by density gradient centrifugation using Ficoll-Paque (GE Healthcare) (see General Protocols in the User Manuals or visit www.miltenyibiotec.com/protocols) and subsequent positive selection via CD14 MicroBeads. First the CD14+ cells are magnetically labeled with CD14 MicroBeads. Then the cell suspension is loaded onto a MACS® Column which is placed in the magnetic field of a MACS Separator. The magnetically labeled CD14+ cells are retained in the column. The unlabeled cells run through, this cell fraction is depleted of CD14+ cells. After removal of the column from the magnetic field, the magnetically retained CD14+ cells can be eluted as the positively selected cell fraction. After centrifugation at 200×g for 10 min at room temperature the monocytes were harvested and used directly in binding assay or resuspended in freezing medium (10% DMSO, 90% FCS) at 1.0E+07 cells/ml and stored in liquid nitrogen.
1×10⁵ CD14+ isolated human monocytes (50 μl/well) were put into 98 well-v bottom MTP in fresh culture medium and incubated with Redimune® NF Liquid for 15 min at RT to block unspecific binding. […] After washing and centrifugation MFI signals of stained cells were analyzed by BD Biosciences FACSCanto flow cytometer.
The target of experiment [7] is T3, monomeric human Tim3-ECD (human, UniProt Q8TDQ0 22-202).
T3 construct: also called huTim3
Briefly: SPR Biacore, antibody captured by anti-mouse IgG. (In general: In SPR one partner is held on a chip, and binding of the other changes the refractive index at the surface.)
Description: (§3) Therefore, an anti-mouse IgG was immobilized by amine coupling to the surface of a (Biacore) CM5 sensor chip. The samples were then captured and hu/cy Tim3-ECD was bound to them. The sensor chip surface was regenerated after each analysis cycle. The equilibrium constant KD was finally gained by fitting the data to a 1:1 langmuir interaction model.
(§4) Flow cell temperature was set to 25° C. and sample compartment temperature to 12° C. The system was primed with running buffer. The samples were injected for 30 seconds with a concentration of 200 μg/ml and bound to the spots 1 and 5 of each flow cell, allowing the measurement of eight samples in parallel. Then a complete set of different (monomeric cyno, monomeric human and huFc fused dimeric human Tim3-ECD) concentrations (s. Table X) was injected over each sample for 240 s followed by a dissociation time of 30/1800 s (s. Table 1). Each analysis cycle (sample capture, spot 1 and 5—Tim3 ECD injection) was then regenerated with a 30 seconds long injection of Glycine-HCl pH 1.7. The flow rate was set to 30 μl/min for the whole run. Finally, the double referenced data was fitted to a 1:1 langmuir interaction model with the Biacore B4000 Evaluation Software.

Experiment [8] has as its target T4, monomeric cyno Tim3-ECD (cynomolgus, UniProt A0A2K5U3G7 22-195).
T4 construct: extracellular domain; also called cyTim3
T4 sequence: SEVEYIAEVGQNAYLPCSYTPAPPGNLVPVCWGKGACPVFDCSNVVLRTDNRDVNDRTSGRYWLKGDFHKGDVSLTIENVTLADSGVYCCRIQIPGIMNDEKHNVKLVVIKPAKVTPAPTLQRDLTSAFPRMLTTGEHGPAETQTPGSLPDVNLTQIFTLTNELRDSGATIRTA
Briefly: SPR Biacore, antibody captured by anti-mouse IgG.
Description: as §3, §4

Experiment [9] deals with T2, human TIM-3 on cells. Description: cell-based or functional assay.
Experiment [10] has as its target T2, human TIM-3 on cells. Briefly: cell-based or functional assay. This is another data set of the same source.
Experiment [11] addresses T2, human TIM-3 on cells. Description: cell-based or functional assay. This is another data set of the same source.
For experiment [12], the target named is T5, huFc fused dimeric human Tim3-ECD (human, UniProt Q8TDQ0 22-202).
T5 construct: also called huTim3Fc; bivalent Tim3
Briefly: SPR Biacore, bivalent Tim3.
Description: as §3, §4

Experiment [13] concerns the target T6, Tim3-ECD-His-Biotin (human, UniProt Q8TDQ0 22-202).
T6 construct: also called human Tim3 (ELISA); Biochem Human
Briefly: ELISA on Tim3-ECD-His-Biotin.
Description: After washing (3×90 μl/well with PBST-buffer) 25 μl aTim3 samples or diluted (1:2 steps) reference antibody aTim3 F38-2E2 (Biolegend) was added and incubated 1 h at RT. After washing (3×90 μl/well with PBST-buffer) 25 μl/well sheep-anti-mouse-POD (GE NA9310V) was added in 1:9000 dilution and incubated at RT for 1 h while shaking at 400 rpm rotation. After washing (4×90 μl/well with PBST-buffer) 25 μl/well TMB substrate (Calbiochem, #CL07) was added and incubated until OD 1.5-2.5. Then the reaction was stopped by addition of 25 μl/well 1N HCL-solution.

Experiment [14] concerns the target T2, human TIM-3 on cells. Description: cell ELISA, CHO-K1 expressing human Tim3. A general note: In an ELISA, binding on a coated surface is turned into a signal by an enzyme label.
Description: Then the reaction was stopped by addition of 25 μl/well 1N HCL-solution.
The target in experiment [15] is T5, huFc fused dimeric human Tim3-ECD. Description: SPR Biacore, antibody captured by anti-mouse IgG.
Description: as §3, §4
Experiment [16] concerns the target T3, monomeric human Tim3-ECD. Briefly: SPR Biacore, monovalent Tim3.
Description: as §3, §4
Experiment [17] has as its target T7, cynomolgus FolR1 ECD-AcTev-Fcknob-Avi tag + Fc hole, biotinylated monomeric Fc fusion (cynomolgus, UniProt P0DOX5 223-449 = IgG part).
T7 construct: also called cyFolR1; cyno FolR1-Fc
Briefly: SPR, apparent KD, bivalent binding (avidity).
Description: (§5) Binding of FolR1 binders as IgG or in the T-cell bispecific format to different recombinant folate receptors (human FolR1, 2 and 3, murine FolR1 and cynomolgus FolR1; all as Fc fusions) was assessed by surface plasmon resonance (SPR).
Recombinant biotinylated monomeric Fc fusions of human, cynomolgus and murine Folate Receptor 1 (FolR1-Fc) were directly coupled on a SA chip using the standard coupling instruction (Biacore, Freiburg/Germany). The immobilization level was about 300-400 RU. The anti-FolR1 IgGs or T cell bispecifics were passed at a concentration range from 2.1 to 500 nM with a flow of 30 μL/minutes through the flow cells over 180 seconds. The dissociation was monitored for 600 seconds. Bulk refractive index differences were corrected for by subtracting the response obtained on reference flow cell immobilized with recombinant biotinylated IL2 receptor Fc fusion. […] The binding curves resulting from the bivalent binding of the IgGs or T cell bispecifics were approximated to a 1:1 Langmuir binding and fitted with that model (which is not correct, but gives an idea of the avidity). The apparent avidity constants for the interactions were derived from the rate constants of the fitting using the Bia Evaluation software (GE Healthcare).

For experiment [18], the target named is T7, cynomolgus FolR1 ECD-AcTev-Fcknob-Avi …. Description: SPR, monovalent, antibody captured by anti-Fab.
Description: as §5
For affinity measurement, direct coupling of around 6000-7000 resonance units (RU) of the anti-human Fab specific antibody (Fab capture kit, GE Healthcare) was performed on a CM5 chip at pH5.0 using the standard amine coupling kit (GE Healthcare). Anti-FolR1 IgGs or T cell bispecifics were captured at 20 nM with a flow rate of 10 μl/min for 20 or 40 sec, the reference flow cell was left without capture. […] The dissociation phase was monitored for 240 sand triggered by switching from the sample solution to HBS-EP. The chip surface was regenerated after every cycle using a double injection of 60 sec 10 mM Glycine-HCl pH 2.1 or pH1.5. Bulk refractive index differences were corrected for by subtracting the response obtained on the reference flow cell 1. The affinity constants for the interactions were derived from the rate constants by fitting to a 1:1 Langmuir binding using the Bia Evaluation software (GE Healthcare).

B1: Tim3_0022 (antibody, V domains shown)
VH: EVQLQESGPSLVKPSQTLSLTCSVTGDSIASAYWNWIRKFPGNKLEYMGYINYSGSTYYNPSLKSRISITRDTSQNQYYLQLNSVTTEDTATYYCVTGDYFDYWGRGTTLTVSS
VL: DIQMTQSPSSLSAYLGGKVTITCKARQDVRKNIGWYQHKPGKGPRLLIWYTSTLQSGIPSRFSGSGSGRDYSFNINNLEPEDIATYYCLQYDNLPFTFGTGTKLEIR
For B1, the MFI in experiment [1] is 115 MFI; in experiment [2], 134 MFI; in experiment [3] it was 138 MFI. Moreover, the “specific binding MFI” value was found to be 1470 MFI in experiment [4], 1110 MFI in [5] and 1240 MFI in experiment [6]. Further, the Kd in [7] was found to be 126 nM; in experiment [8], 28.4 nM.

B2: Tim3_0016 (antibody, V domains shown)
VH: QVTLKESGPGILQPSQTLRLTCSFSGFSLSTSGMSVGWIRQPSGKGLEWLAHIWLNDDVFFNPALKSRLTISKDTSNNQVFLQIASVVTADTATYYCVRANGYLYALDYWGQGTSVTVSS
VL: QIVLTQSPAIMSASPGQKVTITCSASSSVNYTQWYQQKLGSSPKLWIYDAFKLAPGVPARFSGSGTGTSYSLTISSMEAEDAASYFCHQWSSYPWTFGGGTKLEIK
notes: also called clone 0016
B2: the “IFN-gamma release in MLR at 1 µg/ml, % of IL-2 control” value in experiment [9] was 7%. Moreover, in experiment [9], the “IFN-gamma release in MLR at 10 µg/ml, % of IL-2 control” value is 22%. The MFI in experiment [1] is 157 MFI; in experiment [2], 177 MFI; in experiment [3] it was 187 MFI. Moreover, the figures for the “specific binding MFI” value in experiment [4], in experiment [5] and in experiment [6] were 2120 MFI, 1630 MFI and 1690 MFI, respectively. This molecule also yielded a Kd in [8] of 21.6 nM.

B3: Tim3_0033 Fab-PE24 construct (Fab, V domains shown)
VH: QGQMHQSGAELVKPGSSVKLSCKTSGFTFSSSFISWLKQKPGQSLEWIAWIYAATGSTSYNQKFTNKAQLTVDTSSSAAYMQFSSLTTEDSAIYYCARHAGYPHYYAMDYWGQGTSVTVSS
VL: DIQMTQSPASLSASVGETVTITCRASENIFSNLAWYQQKQGKSPQLLVYSATNLGDGVPSRFSGSGSGTQFSLKINSLQPEDFGNYYCQHFYKIPFTFGTGTKLEIK
Consider B3, for which, in experiment [10], the “Max. killing, Pfeiffer cells” value came out at 99.8% and the “Max. killing, RPMI-8226 cells” value came out at 99.7%.

B4: Tim3_0033 (antibody, V domains shown)
VH: B3 VH
VL: B3 VL
In the case of B4, in experiment [9], the “IFN-gamma release in MLR at 1 µg/ml, % of IL-2 control” value came out at 0%; the “IFN-gamma release in MLR at 10 µg/ml, % of IL-2 control” value was found to be 30%; the “IFN-gamma release in MLR at 40 µg/ml, % of IL-2 control” value amounted to 35%. For the same molecule, in experiment [11], the “internalization at 30 Min, RPMI-8226” value stood at 75%; the “internalization at 60 Min, RPMI-8226” value came out at 81%; the “internalization at 120 Min, RPMI-8226” value is 82%; the “internalization at 240 Min, RPMI-8226” value turned out to be 82%. In addition, the “internalization at 26 h, RPMI-8226” value in [11] is 80%. In [12], this molecule had a Kd of 3.1 nM. In experiment [13], this molecule showed an EC50 of 1.32 µg/mL. This molecule also gave an EC50 in [14] of 3.71 µg/mL. Also, the MFI in [1] came to 71 MFI. The MFI in experiment [2] worked out at 81 MFI. The same molecule showed an MFI in experiment [3] of 83 MFI. Besides, the “specific binding MFI” value in experiment [4] was 480 MFI. The “specific binding MFI” value in experiment [5] was determined as 328 MFI. Further, the “specific binding MFI” value in experiment [6] was found to be 595 MFI. For the same molecule, the Kd in experiment [15] was 3.05 nM.

B5: Tim3_0021 Fab-PE24 construct (Fab, V domains shown)
VH: QVQLQQSGPQLVRPGASVQISCKASGYSFTSYLLHWLKQRPGQGLEWIGMIDPSDSETRLNQKFKDKATLTVDKSSSTAYMQLSSPTSEDSAVYYCARDGYYAWYYFDCWGQGTTLTVSS
VL: DIVLTQSPATLSVTPGDRVSLSCRASQSIGNNLHWYQQKSHESPRLLIKYASHSISGIPSKFSGTGSGTDFTLSFNSVETEDFGMYFCQQSNSWPLTFGAGTKLELK
For the molecule B5, the “Max. killing, Pfeiffer cells” value in experiment [10] came to 98.4%.

B6: Tim3_0021 (antibody, V domains shown)
VH: B5 VH
VL: B5 VL
B6: the “IFN-gamma release in MLR at 1 µg/ml, % of IL-2 control” value in experiment [9] was 101%. In experiment [9], the “IFN-gamma release in MLR at 10 µg/ml, % of IL-2 control” value was 108%. In experiment [9], the “IFN-gamma release in MLR at 40 µg/ml, % of IL-2 control” value stood at 112%. Also, in [11], the “internalization at 30 Min, RPMI-8226” value stood at 70%. The “internalization at 60 Min, RPMI-8226” value in [11] was determined as 75%. For the same molecule, the “internalization at 120 Min, RPMI-8226” value in [11] was 74%. The “internalization at 240 Min, RPMI-8226” value in [11] came to 78%. In addition, the “internalization at 26 h, RPMI-8226” value in experiment [11] worked out at 77%. Also, the Kd was found to be 4.1 nM in [12], 204 nM in [16], 204 nM in [7] and 4.07 nM in [15]. Also, the EC50 in experiment [13] turned out to be 0.047 µg/mL; in [14], 0.073 µg/mL. Moreover, the MFI in experiment [1] was found to be 348 MFI; in [2], 473 MFI; in experiment [3], 399 MFI. The “specific binding MFI” value in experiment [4] was 1130 MFI; in experiment [5] it was 951 MFI; in experiment [6] it was 1200 MFI.

B7: Farletuzumab (antibody, V domains shown)
VH: EVQLVESGGGVVQPGRSLRLSCSASGFTFSGYGLSWVRQAPGKGLEWVAMISSGGSYTYYADSVKGRFAISRDNAKNTLFLQMDSLRPEDTGVYFCARHGDDPAWFAYWGQGTPVTVSS
VL: DIQLTQSPSSLSASVGDRVTITCSVSSSISSNNLHWYQQKPGKAPKPWIYGTSNLASGVPSRFSGSGSGTDYTFTISSLQPEDIATYYCQQWSSYPYMYTFGQGTKVEIKR
B7: the Kd amounted to 0.65 nM in experiment [17] and 67.3 nM in experiment [18].
